The supplement of paper PMC5998384

Experiments:
[1] = system: HeLa Kyoto; assay: thermal stability score vs G1/S (z-score of summed log2 fold changes over temperatures); higher = more thermally stable than in G1/S
[2] = system: HeLa Kyoto; assay: melting temperature (median over replicates), in situ; higher = more thermally stable
[3] = cell cycle stage: early G1 (4.5 h after nocodazole release)
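Wherever melting temperature (median over replicates), in situ is given: HeLa Kyoto cells synchronized by double thymidine or nocodazole block, proteins quantified by TMT10plex mass spectrometry, three independent biological replicates.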
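Wherever thermal stability score vs G1/S (z-score of summed log2 fold changes over temperatures) is given: synchronized HeLa Kyoto cells, proteins quantified by TMT10plex mass spectrometry, three biological replicates, mitosis taken 0.5 h after nocodazole release, G1/S directly after double thymidine block.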

| Sequence | thermal stability score [1, 3] | thermal stability score ([1]; cell cycle stage: mitosis) | melting temperature ([2]; cell cycle stage: G1/S) [°C] | melting temperature ([2]; cell cycle stage: mitosis) [°C] |
| --- | --- | --- | --- | --- |
| MALSRVCWARSAVWGSAVTPGHFVTRRLQLGRSGLAWGAPRSSKLHLSPKADVKNLMSYVVTKTKAINGKYHRFLGRHFPRFYVLYTIFMKGLQMLWADAKKARRIKTNMWKHNIKFHQLPYREMEHLRQFRQDVTKCLFLGIISIPPFANYLVFLLMYLFPRQLLIRHFWTPKQQTDFLDIYHAFRKQSHPEIISYLEKVIPLISDAGLRWRLTDLCTKIQRGTHPAIHDILALRECFSNHPLGMNQLQALHVKALSRAMLLTSYLPPPLLRHRLKTHTTVIHQLDKALAKLGIGQLTAQEVKSACYLRGLNSTHIGEDRCRTWLGEWLQISCSLKEAELSLLLHNVVLLSTNYLGTRR [LETMD1] | -0.886 | -0.884 |  |  |
| MKAIIHLTLLALLSVNTATNQGNSADAVTTTETATSGPTVAAADTTETNFPETASTTANTPSFPTATSPAPPIISTHSSSTIPTPAPPIISTHSSSTIPIPTAADSESTTNVNSLATSDIITASSPNDGLITMVPSETQSNNEMSPTTEDNQSSGPPTGTALLETSTLNSTGPSNPCQDDPCADNSLCVKLHNTSFCLCLEGYYYNSSTCKKGKVFPGKISVTVSETFDPEEKHSMAYQDLHSEITSLFKDVFGTSVYGQTVILTVSTSLSPRSEMRADDKFVNVTIVTILAETTSDNEKTVTEKINKAIRSSSSNFLNYDLTLRCDYYGCNQTADDCLNGLACDCKSDLQRPNPQSPFCVASSLKCPDACNAQHKQCLIKKSGGAPECACVPGYQEDANGNCQKCAFGYSGLDCKDKFQLILTIVGTIAGIVILSMIIALIVTARSNNKTKHIEEENLIDEDFQNLKLRSTGFTNLGAEGSVFPKVRITASRDSQMQNPYSRHSSMPRPDY [MUC13] | -3.46 | -1.12 |  |  |
| MGDMANSSIEFHPKPQQQRDVPQAGGFGCTLAELRTLMELRGAEALQKIEEAYGDVSGLCRRLKTSPTEGLADNTNDLEKRRQIYGQNFIPPKQPKTFLQLVWEALQDVTLIILEVAAIVSLGLSFYAPPGEESEACGNVSGGAEDEGEAEAGWIEGAAILLSVICVVLVTAFNDWSKEKQFRGLQSRIEQEQKFTVIRNGQLLQVPVAALVVGDIAQVKYGDLLPADGVLIQANDLKIDESSLTGESDHVRKSADKDPMLLSGTHVMEGSGRMVVTAVGVNSQTGIIFTLLGAGGEEEEKKDKKGKQQDGAMESSQTKAKKQDGAVAMEMQPLKSAEGGEMEEREKKKANAPKKEKSVLQGKLTKLAVQIGKAGLVMSAITVIILVLYFVIETFVVEGRTWLAECTPVYVQYFVKFFIIGVTVLVVAVPEGLPLAVTISLAYSVKKMMKDNNLVRHLDACETMGNATAICSDKTGTLTTNRMTVVQSYLGDTHYKEIPAPSALTPKILDLLVHAISINSAYTTKILPPEKEGALPRQVGNKTECALLGFVLDLKRDFQPVREQIPEDKLYKVYTFNSVRKSMSTVIRMPDGGFRLFSKGASEILLKKCTNILNSNGELRGFRPRDRDDMVRKIIEPMACDGLRTICIAYRDFSAGQEPDWDNENEVVGDLTCIAVVGIEDPVRPEVPEAIRKCQRAGITVRMVTGDNINTARAIAAKCGIIQPGEDFLCLEGKEFNRRIRNEKGEIEQERLDKVWPKLRVLARSSPTDKHTLVKGIIDSTTGEQRQVVAVTGDGTNDGPALKKADVGFAMGIAGTDVAKEASDIILTDDNFTSIVKAVMWGRNVYDSISKFLQFQLTVNVVAVIVAFTGACITQDSPLKAVQMLWVNLIMDTFASLALATEPPTESLLLRKPYGRDKPLISRTMMKNILGHAVYQLAIIFTLLFVGELFFDIDSGRNAPLHSPPSEHYTIIFNTFVMMQLFNEINARKIHGERNVFDGIFSNPIFCTIVLGTFGIQIVIVQFGGKPFSCSPLSTEQWLWCLFVGVGELVWGQVIATIPTSQLKCLKEAGHGPGKDEMTDEELAEGEEEIDHAERELRRGQILWFRGLNRIQTQIRVVKAFRSSLYEGLEKPESKTSIHNFMATPEFLINDYTHNIPLIDDTDVDENEERLRAPPPPSPNQNNNAIDSGIYLTTHVTKSATSSVFSSSPGSPLHSVETSL [ATP2B3] |  |  | 54.2 |  |
| MAAEADGPLKRLLVPILLPEKCYDQLFVQWDLLHVPCLKILLSKGLGLGIVAGSLLVKLPQVFKILGAKSAEGLSLQSVMLELVALTGTMVYSITNNFPFSSWGEALFLMLQTITICFLVMHYRGQTVKGVAFLACYGLVLLVLLSPLTPLTVVTLLQASNVPAVVVGRLLQAATNYHNGHTGQLSAITVFLLFGGSLARIFTSIQETGDPLMAGTFVVSSLCNGLIAAQLLFYWNAKPPHKQKKAQ [MPDU1] |  |  | 59.2 | 59.2 |
| MAEEEGPPVELRQRKKPKSSENKESAKEEKISDIPIPERAPKHVLFQRFAKIFIGCLAAVTSGMMYALYLSAYHERKFWFSNRQELEREITFQGDSAIYYSYYKDMLKAPSFERGVYELTHNNKTVSLKTINAVQQMSLYPELIASILYQATGSNEIIEPVYFYIGIVFGLQGIYVTALFVTSWLMSGTWLAGMLTVAWFVINRVDTTRIEYSIPLRENWALPYFACQIAALTGYLKSNLNTYGERFCYLLMSASTYTFMMMWEYSHYLLFLQAISLFLLDTFSVEQSDKVYEVYKIYIFSLFLGYLLQFENPALLVSPLLSLVAALMLAKCLQLNVKKGSFVAKIIKVINFYLVCTLTITLNIIMKMFVPHKENGHMLKFLEVKFGLNMTKNFTMNWLLCQESLQAPSQDFFLRLTQSSLLPFYILVLIICFLSMLQVIFRRINGKSLKETVTLEDGRIGERPEIIYHVIHTILLGSLAMVIEGLKYIWIPYVCMLAAFGVCSPELWMTLFKWLRLRTVHPILLALILSMAVPTIIGLSLWKEFFPRLMTELMELQEFYDPDTVELMTWIKRQAPVAAVFAGSPQLMGAIKLCTGWMVTSLPLYNDDDLLKRNENIYQIYSKRSAEDIYKILTSYKANYLIVEDAICNEVGPMRGCRVKDLLDIANGHMVCEEGDKLTYSKYGRFCHEVKINYSPYVNYFTRVYWNRSYFVYKINTVISFQS [DPY19L4] |  |  | 54.5 | 56.9 |
| MKPNFSLRLRIFNLNCWGIPYLSKHRADRMRRLGDFLNQESFDLALLEEVWSEQDFQYLRQKLSPTYPAAHHFRSGIIGSGLCVFSKHPIQELTQHIYTLNGYPYMIHHGDWFSGKAVGLLVLHLSGMVLNAYVTHLHAEYNRQKDIYLAHRVAQAWELAQFIHHTSKKADVVLLCGDLNMHPEDLGCCLLKEWTGLHDAYLETRDFKGSEEGNTMVPKNCYVSQQELKPFPFGVRIDYVLYKAVSGFYISCKSFETTTGFDPHRGTPLSDHEALMATLFVRHSPPQQNPSSTHGPAERSPLMCVLKEAWTELGLGMAQARWWATFASYVIGLGLLLLALLCVLAAGGGAGEAAILLWTPSVGLVLWAGAFYLFHVQEVNGLYRAQAELQHVLGRAREAQDLGPEPQPALLLGQQEGDRTKEQ [SMPD2] |  |  |  | 55.7 |
| MASRWWRWRRGCSWKPAARSPGPGSPGRAGPLGPSAAAEVRAQVHRRKGLDLSQIPYINLVKHLTSACPNVCRISRFHHTTPDSKTHSGEKYTDPFKLGWRDLKGLYEDIRKELLISTSELKEMSEYYFDGKGKAFRPIIVALMARACNIHHNNSRHVQASQRAIALIAEMIHTASLVHDDVIDDASSRRGKHTVNKIWGEKKAVLAGDLILSAASIALARIGNTTVISILTQVIEDLVRGEFLQLGSKENENERFAHYLEKTFKKTASLIANSCKAVSVLGCPDPVVHEIAYQYGKNVGIAFQLIDDVLDFTSCSDQMGKPTSADLKLGLATGPVLFACQQFPEMNAMIMRRFSLPGDVDRARQYVLQSDGVQQTTYLAQQYCHEAIREISKLRPSPERDALIQLSEIVLTRDK [PDSS1] |  |  |  | 51.7 |
| MAELQMLLEEEIPGGRRALFDSYTNLERVADYCENNYIQSADKQRALEETKAYTTQSLASVAYLINTLANNVLQMLDIQASQLRRMESSINHISQTVDIHKEKVARREIGILTTNKNTSRTHKIIAPANLERPVRYIRKPIDYTILDDIGHGVKWLLRFKVSTQNMKMGGLPRTTPPTQKPPSPPMSGKGTLGRHSPYRTLEPVRPPVVPNDYVPSPTRNMAPSQQSPVRTASVNQRNRTYSSSGSSGGSHPSSRSSSRENSGSGSVGVPIAVPTPSPPSVFPAPAGSAGTPPLPATSASAPAPLVPATVPSSTAPNAAAGGAPNLADGFTSPTPPVVSSTPPTGHPVQFYSMNRPASRHTPPTIGGSLPYRRPPSITSQTSLQNQMNGGPFYSQNPVSDTPPPPPPVEEPVFDESPPPPPPPEDYEEEEAAVVEYSDPYAEEDPPWAPRSYLEKVVAIYDYTKDKEDELSFQEGAIIYVIKKNDDGWYEGVMNGVTGLFPGNYVESIMHYSE [ABI2] |  |  | 52.3 | 52.5 |
| MPSSLPGSQVPHPTLDAVDLVEKTLRNEGTSSSAPVLEEGDTDPWTLPQLKDTSQPWKELRVAGRLRRVAGSVLKACGLLGSLYFFICSLDVLSSAFQLLGSKVAGDIFKDNVVLSNPVAGLVIGVLVTALVQSSSTSSSIVVSMVAAKLLTVRVSVPIIMGVNVGTSITSTLVSMAQSGDRDEFQRAFSGSAVHGIFNWLTVLVLLPLESATALLERLSELALGAASLTPRAQAPDILKVLTKPLTHLIVQLDSDMIMSSATGNATNSSLIKHWCGTTGQPTQENSSCGAFGPCTEKNSTAPADRLPCRHLFAGTELTDLAVGCILLAGSLLVLCGCLVLIVKLLNSVLRGRVAQVVRTVINADFPFPLGWLGGYLAVLAGAGLTFALQSSSVFTAAVVPLMGVGVISLDRAYPLLLGSNIGTTTTALLAALASPADRMLSALQVALIHFFFNLAGILLWYLVPALRLPIPLARHFGVVTARYRWVAGVYLLLGFLLLPLAAFGLSLAGGMELAAVGGPLVGLVLLVILVTVLQRRRPAWLPVRLRSWAWLPVWLHSLEPWDRLVTRCCPCNVCSPPKATTKEAYCYENPEILASQQL [SLC34A3] |  |  |  | 57.5 |
| MQFMLLFSRQGKLRLQKWYVPLSDKEKKKITRELVQTVLARKPKMCSFLEWRDLKIVYKRYASLYFCCAIEDQDNELITLEIIHRYVELLDKYFGSVCELDIIFNFEKAYFILDEFLLGGEVQETSKKNVLKAIEQADLLQEEAETPRSVLEEIGLT [AP1S2] |  |  |  | 49.7 |
| MWSRLVWLGLRAPLGGRQGFTSKADPQGSGRITAAVIEHLERLALVDFGSREAVARLEKAIAFADRLRAVDTDGVEPMESVLEDRCLYLRSDNVVEGNCADELLQNSHRVVEEYFVAPPGNISLPKLDEQEPFPHS [GATC] |  |  | 51.7 |  |
| MRWRTILLQYCFLLITCLLTALEAVPIDIDKTKVQNIHPVESAKIEPPDTGLYYDEYLKQVIDVLETDKHFREKLQKADIEEIKSGRLSKELDLVSHHVRTKLDELKRQEVGRLRMLIKAKLDSLQDIGMDHQALLKQFDHLNHLNPDKFESTDLDMLIKAATSDLEHYDKTRHEEFKKYEMMKEHERREYLKTLNEEKRKEEESKFEEMKKKHENHPKVNHPGSKDQLKEVWEETDGLDPNDFDPKTFFKLHDVNSDGFLDEQELEALFTKELEKVYDPKNEEDDMVEMEEERLRMREHVMNEVDTNKDRLVTLEEFLKATEKKEFLEPDSWETLDQQQFFTEEELKEYENIIALQENELKKKADELQKQKEELQRQHDQLEAQKLEYHQVIQQMEQKKLQQGIPPSGPAGELKFEPHI [NUCB2] |  |  | 55.5 | 56.9 |
